In article PMC8136768:

Molecular target: CEBPβ bZIP DNA-binding domain (pXC1599) (Homo sapiens, UniProt P17676 269-344)
Assay: X-ray crystallography

CEBPβ bZIP DNA-binding domain (pXC1599), sequence (P17676 269-344): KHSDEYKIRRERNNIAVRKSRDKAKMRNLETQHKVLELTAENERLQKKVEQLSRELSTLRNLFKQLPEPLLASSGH

B1: Crystal 16-mer, T:G mismatch (dsDNA)
DNA 1: AGGATTGTGCAATATA
DNA 2: ATATTGCGCAATCCTT
binding result: binds
